From patent publication US20250179161A1

Target: Amyloid Beta (Aβ) 1-42 (human)
Assay: cell-based or functional assay

Amyloid Beta (Aβ) 1-42 (human), sequence (peptide, as listed by the source): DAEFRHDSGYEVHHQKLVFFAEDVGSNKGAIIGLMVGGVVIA

An Avg. pg/mL Aβ1-42 left after ex vivo phagocytosis, APP/PS1 mouse brain sections with primary murine microglia, mean of 92600 pg/mL, an Aβ1-42 (pg/ml) left after ex vivo phagocytosis, human AD brain sections with primary murine microglia of 185000 pg/mL and a Mean (Aβ spots per neuron), isotype control at 1:50 mAb:Aβ42, soluble Aβ 1 µM, rat hippocampal neurons (Aβ spots per neuron) of 58.7 were found for human IgG isotype control antibody in this work.
